Assay results published in patent US10429300B2, “Surface plasmon resonance approach to monitor protein-ligand interactions” (The Johns Hopkins University, priority 2015, dated 2019).

T1: rNav1.2a VSD II paddle peptide (V843A, SEQ ID NO: 2) (Rattus norvegicus, UniProt P04775, V843A)
T1 construct: purchased ProteoGenix; host or cells: chemical synthesis (Fmoc solid phase)
T1 sequence (P04775 832-856 V843A): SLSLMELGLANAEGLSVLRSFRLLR

B1: CssIV: β-scorpion toxin from Centruroides suffusus suffusus (protein)
chain: KEGYLVNSYTGCKFECFKLGDNDYCLRECRQQYGKGSGGYCYAFGCWCTHLYEQAVVWPLPNKTCN
B2: AaHII: Nav channel-selective α-scorpion toxin from Androctonus australis hector; model toxin (protein)
chain: VKDGYIVDDVNCTYFCGRNAYCNEECTKLKGESGYCQWASPYGNACYCYKLPDHVRTKGPGRCH

What was measured:
[1] = system: rNav1.2a/Kv2.1 VSD II paddle chimera; experiment: Two-electrode voltage-clamp, rNav1.2a/Kv2.1 VSD II paddle chimera in Xenopus oocytes; type: cell-based, rat
Text: The DNA sequence of rat (r)Nav1.2a (provided by A. Goldin, University of California, Irvine, Irvine, Calif.), rKv2.1 (provided by K. J. Swartz, National Institutes of Health), and the rNav1.2a/Kv2.1 VSD II or IV chimera was confirmed by automated DNA sequencing, and cRNA was synthesized using T7 polymerase (mMessage mMachine™ kit; Life Technologies) after linearizing the DNA with appropriate restriction enzymes. Channels were expressed in Xenopus oocytes (obtained from Xenopus 1) and studied after a 1-d incubation after cRNA injection (incubated at 17° C. in 96 mM NaCl, 2 mM KCl, 5 mM HEPES, 1 mM MgCl2, 1.8 mM CaCl2, and 50 μg/ml gentamycin, pH 7.6 with NaOH) using two-electrode voltage-clamp recording techniques (OC-725C; Warner Instruments) with a 150-μl recording chamber. Data were filtered at 4 kHz and digitized at 20 kHz using pClamp™ 10 software (Molecular Devices). Microelectrode resistances were 0.5-1.5 MΩ when filled with 3 M KCl. For Kv chimera channel experiments, the external recording solution contained (mM): 50 KCl, 50 NaCl, 5 HEPES, 1 MgCl2, and 0.3 CaCl2, pH 7.6 with NaOH. For rNav1.2a experiments, the external recording solution contained (mM): 100 NaCl, 5 HEPES, 1 MgCl2, and 1.8 CaCl2, pH 7.6 with NaOH. All experiments were performed at ˜22° C. Leak and background conductances, identified by blocking the channel with agitoxin-2 (provided by K. J. Swartz), have been subtracted for all of the Kv channel currents shown. […]. After the addition of the toxin to the recording chamber, the equilibration between the toxin and the channel was monitored using weak depolarizations elicited at 5- or 10-s (R1629A/L1630A mutant) intervals. Voltage-activation relationships were obtained by measuring tail currents for Kv channels or steady-state currents and calculating conductance for Nav channels, and a single Boltzmann function was fitted to the data according to I/Imax=[1c+cexp(−zF(Vc−cV1/2)/RT)]^−1, where I/Imax is the normalized tail-current amplitude, z is the equivalent charge, V1/2 is the half-activation voltage, F is Faraday's constant, R is the gas constant, and T is temperature in kelvin. For all channels, voltage-activation relationships were recorded in the absence and presence of toxin. The ratio of currents (I/I0) recorded in the presence (I) and absence (I0) of toxin was calculated for voltages typically ranging from −140 to 10 cmV, depending on the construct. […] The apparent equilibrium dissociation constant (apparent KD) for Kv channels was calculated according to KD=((1/(1c−cFu^1/4))c−c1)[toxin], assuming four independent toxin-binding sites per channel. Results are given as mean±SEM unless noted otherwise. Offline data analysis was performed using Clampfit 10™ (Molecular Devices), Origin 8.0™ (OriginLab), and Excel™ (Microsoft). […]

[2] = target: T1, rNav1.2a VSD II paddle peptide (V843A, SEQ ID NO: 2); experiment: SPR on immobilized rNav1.2a VSD II paddle peptide; type: binding; conditions: for SPR binding to VSD II paddle peptide: 100 nM toxin, 500 fmol peptide
Procedure: SPR experiments were performed at 25° C. on a Biacore™ T200 instrument (GE Healthcare) using 150 mM NaCl, 3 mM EDTA, 0.005% surfactant P20, and 10 mM HEPES-NaOH, pH 7.4, for the coupling protocol or 50 mM phosphate, pH 7.2, as running buffer. Neutravidin (Thermo Fisher Scientific) was immobilized on CM5 sensor chips (GE Healthcare) using an amine coupling chemistry. All chemicals were obtained from Sigma-Aldrich. […] In all SPR experiments, nonspecific binding obtained in the control flow cell was subtracted from the signal obtained in the experimental flow cell. For qualitative binding analysis, toxins (100 nM in running buffer containing 0.1% BSA) were injected at a flow rate of 20 μl/min over 2 min. […] In between injections, the surface of the sensor chip was regenerated by injecting 1 M NaCl (15 s at 30 l/min). The bulk signal caused by refractive index differences between the flow buffer and the buffer containing the analyte was systematically excluded from the data-fitting process. It is worth noting that isolating a paddle motif (ligand) can induce conformational changes that can affect toxin (analyte) efficacy. […] Sensorgrams can reveal such ligand heterogeneity by displaying biphasic dissociation curves that cannot be fitted with the frequently used Langmuir model, which assumes a 1:1 stoichiometry of analyte to ligand. To account for a possible heterogeneity of surface sites, we calculated the rate constants and affinity equilibrium dissociation constants (KD) for AaHII by a fit to a heterogeneous ligand model incorporated into the Biacore T200 Evaluation™ software (v1.0). This model assumes the presence of two sites on the ligand that can bind analyte and can be described by these equations in which A represents the analyte and B1/B2 represents the heterogeneous ligand:
(A) Shown are the CD spectra of the rNav1.2a VSD II and IV paddle peptides used in this paper. […] (B) Representative association and dissociation kinetic curves obtained using SPR after the application of varying concentrations of AaHII (15-2,000 nM) over a sensor chip to which 50 fmol of the rNav1.2a VSD IV paddle peptide was linked. Toxin was applied after obtaining a steady baseline. Colored traces represent toxin binding obtained after subtraction of the signal from the control flow cell. […] Toxin concentrations are indicated on the right in a shade of gray corresponding to the sensorgram. (C) Representative SPR traces after the application of 100 nM KTX, AaHI, AaHII, LqqV, BomIV, TsVII, and CssIV over a sensor chip to which the rNav1.2a VSD II (left) or IV (right) paddle peptide (500 fmol) was linked. Toxin was applied after obtaining a steady baseline. (D) Binding capacities of 100 nM α-scorpion toxins AaHI, AaHII, LqqV, the α-like scorpion toxin BomIV, and the β-scorpion toxins TsVII and CssIV to the VSD II and IV paddle motifs using SPR (error bars represent±SEM). Y-axis represents the maximum RUs obtained after toxin application.
Next, the VSD IV peptide was fixed on SPR sensor chips by adding a K-linked biotin group to the C terminus, resulting in a 32-amino acid peptide altogether (SEQ ID NO: 4 which is mutated SEQ ID NO: 3 of FIG. 2A).

[3] = target: rNav1.2a/Kv2.1 VSD IV chimera R1629A; conditions: R1629A substitution; read-out: apparent KD; cited from earlier work
rNav1.2a/Kv2.1 VSD IV chimera R1629A, sequence (P04775 1605-1636 R1629A limits assumed): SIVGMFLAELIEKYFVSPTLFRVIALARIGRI

rNav1.2a/Kv2.1 VSD II paddle chimera, sequence (P04775 832-856 limits assumed, stated change not applied): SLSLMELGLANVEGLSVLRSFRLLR

Molecule	concentration required to begin inhibiting the chimera [1]	depolarizing shift in V1/2 ([1]; 1 μM toxin, Boltzmann fit, n=3)	V1/2 in the presence of toxin ([1]; 1 μM toxin, control 33±2 mV)	SPR binding to VSD II paddle peptide [2]	interaction with VSD II paddle chimera [1]	SPR effect on VSD II paddle motif ([2]; up to 20 μM toxin)	Kd [3]
B1	1 µM	~14 mV	47±1 mV	no RUs could be detected	–	–	–
B2	–	–	–	a response was not obtained	no interaction was observed	not noticed	235 ± 24 nM
